Measurements: patent publication US8871276B2, “Beta-casein assemblies for mucosal delivery of therapeutic bioactive agents” (Technion Research and Development Foundation Ltd., priority 2008, dated 2014)

Legend:
Format in all cases: physicochemical
Cryo-TEM of micelles = assay: Cryo-TEM of micelles
Method: Specimens were prepared either in an automated vitrification device (Vitrobot, FEI, The Netherlands) or in the controlled environment vitrification system (CEVS) (Bellare et al. Electron Microsc. Technique, 1988, 10; 87-111) at 24° C. and 100% relative humidity to avoid loss of volatiles. Using the latter, the solutions were incubated in the CEVS at the desired temperature for 1 h. Then, a 7 μL drop of each solution was placed on a TEM copper grid covered with a perforated carbon film (Pelco International) and blotted with filter paper to form a thin liquid film of the sample (100-200 nm thick). The thinned sample was plunged into liquid ethane at its freezing temperature (−183° C.) to form a vitrified specimen and then transferred to liquid nitrogen ([…]) for storage. Some of the vitrified specimens were examined in a Philips CM120 transmission electron microscope. (Philips, The Netherlands) operating at an accelerating voltage of 120 kV. An Oxford CT3500 (Oxford Instruments) cryo-specimen holder that maintained the specimens below −175° C. during sample transfer and observation Other specimens were examined in a Tecnai 12 G2 TEM (FEI) using a Gatan 626 cryo-holder. Specimens were studied in a low-dose imaging mode to minimize beam exposure and electron beam radiation damage.
Images were recorded digitally on a cooled Gatan MultiScan 791 CCD camera using DigitalMicrograph 3.1 software (Gatan) in the low-dose imaging mode to minimize beam exposure and electron-beam radiation damage. Alternatively, images were recorded in the Tecnai on a high-resolution 2 k×2 k Ultrascan 1000 cooled CCD (Gatan, UK), using the Digital Micrograph 3.6 software (Gatan, UK).
The structural characteristics of the micelles in the two pH environments were studied by cryo-TEM and SAXS (Small Angle X-ray Scattering). Cryo-TEM was used to determine the shape of the micelles and to estimate their dimensions between 4 and 40° C. This information was further used to accurately calculate the micelles' dimensions from the SAXS data, and to study how the size and shape are affected by temperature. […]

[1] = Wide-angle X-ray diffraction (XRD); settings: powder / lyophilized specimen, 1:8 mole ratio where loaded
Method: The operating conditions were CuKα radiation (0.154 nm), voltage 40 kV and current 40 mA, in 20 recording range from 3° to 65°, at room temperature.

[2] = Small angle X-ray scattering (SAXS) of micelles
Method: The small angle X-ray scattering equipment consisted of a SAXSess camera (Anton-Paar, Graz, Austria) connected to an X-ray generator (Philips, PW 1730/10) operating at 40 kV and 50 mA with a sealed-tube Cu anode. A Gael mirror was used to convert the divergent polychromatic X-ray beam into a focused line-shaped beam of Cu Kα radiation (λ=0.154 nm). The 2D scattering pattern was recorded by a PI-SCX fused fiber optic taper CCD camera from Princeton Instruments, which is a division of Roper Scientific, Inc. (Trenton, N.J., USA). The used CCD detector features a 2084×2084 array with 24×24 μm pixel size (chip size: 50×50 mm). The CCD was operated at −30° C. with 10° C. water-assisted cooling to reduce the thermally generated charge. Cosmic ray correction and background subtraction were performed on the 2D image before further data processing. The 2D image was integrated into the one-dimensional scattering function within a band of 10 mm. The measurement time was 30 min for each scattering curve (6 images of 5 minutes were taken to assist the cosmic ray correction).
The molecular weight of the scattering aggregates were calculated according to Eq. 1:
[formula] where M is the molecular weight, dΣ(0)/dΩ (cm^−1) the forward scattering intensity at q=0, c (g/cm^3) the β-casein concentration, NA the Avogadro number, and ΔρM (cm/g) the scattering length difference per mass, given by: ΔρM=Δρ ν (2)
The scattering length difference Δρ (cm^−2) was calculated using the known chemical composition of the protein and the solvent, and ν (cm^3/g), the specific volume of the protein in the solution that was calculated via density measurement of the solvent and the solution. The micelle aggregation number was then calculated by dividing the molecular weight of the micelles determined with Eq. 1, by the molecular weight of a single protein molecule.
For a particle of arbitrary shape with a scattering density difference of Δρ(r), the pair distance distribution function p(r) (PDDF) is given by: p(r)=r^2Δ ρ^2(r) (3) where Δ ρ^2(r) is the convolution square of Δρ(r) averaged for all directions in space. The PDDF is related to the scattered intensity l(q) by a Fourier transformation, and it enables the determination of the overall shape and size of the scattering objects.
[formula] λ is the wavelength of the incident radiation and θ is the angle between the scattered and incident beam. The function ƒ(r)=p(r)/r (6) is useful to identify flat plate-like particles, although it has no direct physical meaning. For lamellae, this function starts with a linearly increasing part and becomes almost flat when r is equal to the thickness of the lamella. For flat particles with a finite base area, the outer part decreases linearly because of boundary losses. The thickness of the lamella can then be read from the transition point.
The structural characteristics of the micelles in the two pH environments were studied by cryo-TEM and SAXS (Small Angle X-ray Scattering). Cryo-TEM was used to determine the shape of the micelles and to estimate their dimensions between 4 and 40° C. This information was further used to accurately calculate the micelles' dimensions from the SAXS data, and to study how the size and shape are affected by temperature. SAXS measurements also provided the critical micelle concentration (CMC) and the micelle aggregation numbers as a function of temperature. Experiments were performed in the concentration range of 0.1-40 mg/mL protein, at low pH (between 2.1 and 2.6) in dilute lactic acid solution (6 wt %) or HCl and in aqueous solutions at pH 6.7-7.3 in absence of salts or the presence of up to 0.1M NaCl.
SAXS measurements were used to determine the shape and dimensions of the micelles at low pH more precisely, and to evaluate the micelle molecular weight (i.e., the aggregation number). The scattering curves of 20 mg/mL β-casein in lactic acid solution (pH 2.6, IS 0.0022) at different temperatures are shown in FIG. 3a. […]

[3] = Small angle X-ray scattering (SAXS) of micelles; settings: 1 wt % β-casein, empty or loaded 1:8 protein:celecoxib, pH ~7
[4] = lactic acid solution pH 2.6, 4-40 °C
[5] = 1 wt % β-casein, empty or loaded 1:8 protein:celecoxib, pH ~7

B1: β-casein: bovine β-casein self-assembled into unloaded micelles in acidic or neutral buffer (protein, UniProt P02666 16-224, looked up)
Beta-casein: RELEELNVPGEIVESLSSSEESITRINKKIEKFQSEEQQQTEDELQDKIHPFAQTQSLVYPFPGPIPNSLPQNIPPLTQTPVVVPPFLQPEVMGVSKVKEAMAPKHKEMPFPKYPVEPFTESQSLTLTDVENLHLPLPLLQSWMHQPHQPLPPTVMFPPQSVLSLSQSKVLPVPQKAVPYPQRDMPIQAFLLYQEPVLGPVRGPFPIIV
modifications: self-assembled micelles
notes: bovine β-casein self-assembled into unloaded micelles in acidic or neutral buffer
With B1 the “Maximum dimension of empty micelles (cryo-TEM)” value (Cryo-TEM of micelles; hepes buffer pH ~7) was “about 22 nm”, the “Micelle surface length (cryo-TEM)” value (Cryo-TEM of micelles; [4]) was 20-25 nm and the “Micelle thickness (cryo-TEM)” value (Cryo-TEM of micelles; [4]) was 3-4 nm. For the same molecule, the “Solid form by X-ray diffraction” value [1] was “amorphous pattern”, the “Maximum micelle dimension (SAXS PDDF)” value ([2]; 20 mg/mL, pH 2.6, all temperatures 4-40 °C) was 35-40 nm and the “Rg (from Guinier apr.)” value [2, 5] was 7.8 nm. For the same molecule, the “V, from a, b” value [2, 5] was 2410 nm^3, the “Micelle Dimensions: diameter” value ([2]; pH 2.6, 4-40 °C) was 25 nm in and the “Micelle Shape” value ([2]; pH 2.6, 4 °C) was “disc”. For the same molecule, the Nagg ([2]; pH 2.6, 4 °C) was 8, the Nagg ([2]; pH 2.6, 4 °C, concentrations of 0.5 wt % and below) was “approximately 2” and the “Micelle Shape” value ([2]; pH 2.6, 16 °C) was “disc”. The Nagg ([2]; pH 2.6, 16 °C) was 10, the “Micelle Shape” value ([2]; pH 2.6, 25 °C) was “disc” and the Nagg ([2]; pH 2.6, 25 °C) was 11. For the same molecule, the CMC ([2]; pH 2.6, 25 °C, by SAXS) was 0.1-0.2 wt %, the “Micelle Shape” value ([2]; pH 2.6, 40 °C) was “disc” and the Nagg ([2]; pH 2.6, 40 °C) was 9. It also gave a Density [3] of 1.23 g/mL.
